According to patent US20250154256A1 (AUGUSTA UNIVERSITY RESEARCH INSTITUTE, published 2025):
Read-outs that look alike come from different tables or passages of the source.

T1: mouse PD-1 (mouse, UniProt Q02242 25-167, limits assumed)
T1 construct: Analyte in solution in the Biacore runs
T1 sequence: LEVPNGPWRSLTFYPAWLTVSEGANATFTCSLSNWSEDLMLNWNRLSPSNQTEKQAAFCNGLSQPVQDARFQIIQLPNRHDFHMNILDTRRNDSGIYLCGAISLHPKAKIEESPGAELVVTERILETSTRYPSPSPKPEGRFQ


How the values were obtained:
human PD-1-Fc = molecular target: T2, human PD-1-Fc (human, UniProt Q15116 25-170, limits assumed); assay: ELISA, binding to human PD-1-Fc
T2 construct: ELISA antigen

human PD-1 [1] = molecular target: T3, human PD-1 (human, UniProt Q15116 25-167, limits assumed); assay: SPR (Biacore), antibody as ligand, PD-1 as analyte
T3 construct: Analyte in solution in the Biacore runs; also called programmed cell death protein 1

mouse PD-1 [2] = molecular target: T1, mouse PD-1; assay: SPR (Biacore), antibody as ligand, PD-1 as analyte
human PD-1 [3] = molecular target: T3, human PD-1; assay: SPR (Biacore), antibody as ligand, PD-1 as analyte; remark: listed apart in the source
mouse PD-1 [4] = molecular target: T1, mouse PD-1; assay: SPR (Biacore), antibody as ligand, PD-1 as analyte; remark: listed apart in the source
human PD-1 [5] = molecular target: T3, human PD-1; assay: SPR (Biacore), antibody as ligand, PD-1 as analyte; remark: listed apart in the source

T3 sequence (Q15116 25-167 limits assumed): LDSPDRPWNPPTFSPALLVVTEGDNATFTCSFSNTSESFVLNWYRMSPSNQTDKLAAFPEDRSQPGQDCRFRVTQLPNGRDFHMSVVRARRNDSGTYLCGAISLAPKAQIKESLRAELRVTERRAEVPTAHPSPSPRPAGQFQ
T2 sequence (Q15116 25-170 limits assumed): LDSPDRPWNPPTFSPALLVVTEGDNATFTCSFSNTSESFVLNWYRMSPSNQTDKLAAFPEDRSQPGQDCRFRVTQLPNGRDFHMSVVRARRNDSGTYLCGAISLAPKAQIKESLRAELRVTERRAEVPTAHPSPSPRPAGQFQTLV

EC50 (read off the curve) (human PD-1-Fc) [µg/mL] | Ka (human PD-1 [1]) [M⁻¹] | Kd (human PD-1 [1]) [µM] | Ka (mouse PD-1 [2]) [M⁻¹] | Kd (mouse PD-1 [2]) [µM] | koff (mouse PD-1 [2]) [s⁻¹] | kon (mouse PD-1 [2]) [M⁻¹ s⁻¹] | Ka (human PD-1 [3]) [M⁻¹] | Kd (human PD-1 [3]) [µM] | Ka (mouse PD-1 [4]) [M⁻¹] | Kd (mouse PD-1 [4]) [µM] | Ka (human PD-1 [5]) [M⁻¹] | Kd (human PD-1 [5]) [µM] | Binder
~0.5 | 952000 | 1.05 | 194000 | 5.15 | 0.0103 | 2000 |  |  |  |  |  |  | monoclonal antibody 4G9 (antibody, mouse IgG2b, kappa, V domains shown, also called 4G9 anti-PD-1 antibody) VH: QIQLVQSGPELKKPGETVKISCKASGYTFTTYGMTWVKQAPGKGLKWMGWINTYSGVPTYADDFKGRFAFSLETSASTAYLQINNLKNEDTATYFCARGGRGFAYWGQGTLVTVSA VL: DILLTQSPAILSVSPGERVSFSCRASQSIGTSIHWYQQRTNGSPRLLIKYASESISGIPSRFSGSGSGTDFTLSINSVESEDIADYYCQQSNSWPYTFGGGTKLEIKR
~1 |  |  |  |  |  |  | 202000 | 4.95 | 1.18e+06 | 0.85 |  |  | monoclonal antibody 5C2 (antibody, IgG1, V domains shown, the two clones are reported with different SPR values; also called 5C2 anti-PD-1 antibody) VH: QVQLQQPGAELVKPGASVKVSCKASGYTFTSYWMHWVKQRPGQGLEWIGRIHPSDSDTNYNQKFKGKATLTVDKSSSTAYMQLSSLTSEDSAVYYCAPYGNYASGFAYWGQGTLVTVSA VL: DIVMTQSHKFMSTSVGDRVSITCKASQDVSTAVAWYQQKPGQSPKLLIYWASTRHTGVPDRFTGSGSGTDYTLTISSVQAEDLALYYCQQHYSTPWTFGGGTKLEIKR
 |  |  |  |  |  |  |  |  |  |  | 3.14e+06 | 0.319 | monoclonal antibody 4C12 (antibody, mouse IgG1, kappa, V domains shown, also called 4C12 anti-PD-1 antibody) VH: QVQLQQPGAELVKPGASVKVSCKASGYTFTSYWMHWVKQRPGQGLEWIGRIHPSDSDTNYNQKFKGKATLTVDKSSSTAYMQLSSLTSEDSAVYYCAPYGNYASGFAYWGQGTLVTVSA VL: DIVMTQSHKFMSTSVGDRVSITCKASQDVSTAVAWYQQKPGQSPKLLIYWASTRHTGVPDRFTGSGSGTDYTLTISSVQAEDLALYYCQQHYSTPWTFGGGTKLEIKR
